Laboratory results: patent EP4491631A1 (Anaveon AG, dated 2025)
Numbering of substitutions follows the chain as printed.

B1: MDS446 (bispecific antibody, human IgG1, kappa, L234A L235A)
chain 1: QVQLVQSGAEVKKPGASVKVSCKASGYTFTNFYIHWVRQAPGQGLEWMGSIYPNYGITAYNQKFKDRVTMTVDTSTSTAYMELRSLRSDDTAVYYCARGYSYAMDYWGQGTTVTVSSASTKGPSVFPLAPSSKSTSGGTAALGCLVKDYFPEPVTVSWNSGALTSGVHTFPAVLQSSGLYSLSSVVTVPSSSLGTQTYICNVNHKPSNTKVDKRVEPKSCDKTHTCPPCPAPEAAGGPSVFLFPPKPKDTLMISRTPEVTCVVVDVSHEDPEVKFNWYVDGVEVHNAKTKPREEQYNSTYRVVSVLTVLHQDWLNGKEYKCKVSNKALAAPIEKTISKAKGQPREPQVYTLPPSREEMTKNQVSLTCLVKGFYPSDIAVEWESNGQPENNYKTTPPVLDSDGSFFLTSKLTVDKSRWQQGNVFSCSVMHEALHNHYTQKSLSLSPGK
chain 2: DIQMTQSPSSVSASVGDRVTITCSASQGISGDLNWYQQKPGKAPKLLIYHTSQLHSDVPSRFSGSGSGTDFTLTISSLQPEDFATYYCQGYSKDLLTFGGGTKLEIKRTVAAPSVFIFPPSDEQLKSGTASVVCLLNNFYPREAKVQWKVDNALQSGNSQESVTEQDSKDSTYSLSSTLTLSKADYEKHKVYACEVTHQGLSSPVTKSFNRGEC
chain 3: AIRLTQSPSSFSASTGDRVTITCKASQSVDYGGGNFHLRPRDLISNINVIVLELKGSETTFMCEYADETATIVEFLNRWITFSQSIISTLTPTSSSTKKTQLQLEHLLLDLQMILNGINNYKNPKLTRMLTFKFYMPKKATELKHLQCLEEELKPLEEVLNLAQSKGGGGDSYMNWYQQKPGKAPKLLIYAASNLESGVPSRFSGSGSGTDFTLTISSLQSEDFATYYCQQSNEDPYTFGGGTKVEIKGGGGSGGGGSGGGGSEVQLVQSGAEVKKPGESLKISCKGSGYAFTNYLIEWVRQMPGKGLEWMGVINPGSGGTNYNEKFKGQVTISADKSISTAYLQWSSLKASDTAMYYCARWRGEGYYAYFDVWGQGTTVTVSSGGGGSGGGGSQVQLVQSGAEVKKPGASVKVSCKASGYTFTNFYIHWVRQAPGQGLEWMGSIYPNYGITAYNQKFKDRVTMTVDTSTSTAYMELRSLRSDDTAVYYCARGYSYAMDYWGQGTTVTVSSASTKGPSVFPLAPSSKSTSGGTAALGCLVKDYFPEPVTVSWNSGALTSGVHTFPAVLQSSGLYSLSSVVTVPSSSLGTQTYICNVNHKPSNTKVDKRVEPKSCDKTHTCPPCPAPEAAGGPSVFLFPPKPKDTLMISRTPEVTCVVVDVSHEDPEVKFNWYVDGVEVHNAKTKPREEQYNSTYRVVSVLTVLHQDWLNGKEYKCKVSNKALAAPIEKTISKAKGQPREPQVYTLPPSREEMTKNQVSLYCLVKGFYPSDIAVEWESNGQPENNYKTTPPVLDSDGSFFLYSKLTVDKSRWQQGNVFSCSVMHEALHNHYTQKSLSLSPGK
B2: TMU471 (bispecific antibody, human IgG1, kappa, L234A L235A)
chain 1: B1 chain 1 with S50R
chain 2: B1 chain 2 with L54R
chain 3: B1 chain 3 with S444R
B3: YPW986 (bispecific antibody)
chain 1: EVQLLESGGGLVQPGGSLRLSCAASGFTFSINAMTWVRQAPGKGLEWVSTISGSGFSTYYADSLKGRFTISRDNSKNTLYLQMNSLRAEDTAVYYCAKEVYGDYWGQGTLVTVSSASVAAPSVFIFPPSDEQLKSGTASVVCLLNNFYPREAKVQWKVDNALQSGNSQESVTEQDSKDSTYSLSSTLTLSKADYEKHKVYACEVTHQGLSSPVTKSFNRGECDKTHTCPPCPAPEAAGGPSVFLFPPKPKDTLMISRTPEVTCVVVDVSHEDPEVKFNWYVDGVEVHNAKTKPREEQYNSTYRVVSVLTVLHQDWLNGKEYKCKVSNKALAAPIEKTISKAKGQPREPQVYTLPPSREEMTKNQVSLTCLVKGFYPSDIAVEWESNGQPENNYKTTPPVLDSDGSFFLTSKLTVDKSRWQQGNVFSCSVMHEALHNHYTQKSLSLSPGK
chain 2: RSVLTQPPSASGTPGQRVSISCSGASSNIGSQSVFWYQQLPGTAPKLLIYSNNQRPSGVPDRFSGSKSGTSASLAISGLRSEDEADYYCAAWDDSLSIWVFGGGTKLTVLSSASTKGPSVFPLAPSSKSTSGGTAALGCLVKDYFPEPVTVSWNSGALTSGVHTFPAVLQSSGLYSLSSVVTVPSSSLGTQTYICNVNHKPSNTKVDKRVEPKSC
chain 3: EVQLVQSGAEVKKPGESLKISCKGSGYAFTNYLIEWVRQMPGKGLEWMGVINPGSGGTNYNEKFKGQVTISADKSISTAYLQWSSLKASDTAMYYCARWRGEGYYAYFDVWGQGTTVTVSSASTKGPSVFPLAPSSKSTSGGTAALGCLVKDYFPEPVTVSWNSGALTSGVHTFPAVLQSSGLYSLSSVVTVPSSSLGTQTYICNVNHKPSNTKVDKRVEPKSCDKTHTCPPCPAPEAAGGPSVFLFPPKPKDTLMISRTPEVTCVVVDVSHEDPEVKFNWYVDGVEVHNAKTKPREEQYNSTYRVVSVLTVLHQDWLNGKEYKCKVSNKALAAPIEKTISKAKGQPREPQVYTLPPSREEMTKNQVSLYCLVKGFYPSDIAVEWESNGQPENNYKTTPPVLDSDGSFFLYSKLTVDKSRWQQGNVFSCSVMHEALHNHYTQKSLSLSPGK
chain 4: not shown
B4: RIB426 (bispecific antibody, human IgG1, kappa, L234A L235A)
chain 1: QVQLVQSGAEVKKPGASVKVSCKASGYTFTNFYIHWVRQAPGQGLEWMGRIYPNYGITAYNQKFKDRVTMTVDTSTSTAYMELRSLRSDDTAVYYCARGYSYAMDYWGQGTTVTVSSASVAAPSVFIFPPSDEQLKSGTASVVCLLNNFYPREAKVQWKVDNALQSGNSQESVTEQDSKDSTYSLSSTLTLSKADYEKHKVYACEVTHQGLSSPVTKSFNRGECDKTHTCPPCPAPEAAGGPSVFLFPPKPKDTLMISRTPEVTCVVVDVSHEDPEVKFNWYVDGVEVHNAKTKPREEQYNSTYRVVSVLTVLHQDWLNGKEYKCKVSNKALAAPIEKTISKAKGQPREPQVYTLPPSREEMTKNQVSLTCLVKGFYPSDIAVEWESNGQPENNYKTTPPVLDSDGSFFLTSKLTVDKSRWQQGNVFSCSVMHEALHNHYTQKSLSLSPGK
chain 2: DIQMTQSPSSVSASVGDRVTITCSASQGISGDLNWYQQKPGKAPKLLIYHTSQRHSDVPSRFSGSGSGTDFTLTISSLQPEDFATYYCQGYSKDLLTFGGGTKLEIKSSASTKGPSVFPLAPSSKSTSGGTAALGCLVKDYFPEPVTVSWNSGALTSGVHTFPAVLQSSGLYSLSSVVTVPSSSLGTQTYICNVNHKPSNTKVDKRVEPKSC
chain 3: B3 chain 3
chain 4: not shown
B5: QAB373 (bispecific antibody, human IgG1, kappa, L234A L235A)
chain 1: B4 chain 1 with R50S
chain 2: B4 chain 2 with R54L
chain 3: B3 chain 3
chain 4: not shown
B6: PXU588 (bispecific antibody)
chain 1: B3 chain 1
chain 2: B3 chain 2 with Q32S
chain 3: B3 chain 3
chain 4: not shown

Target: T1, IL-2R CD122-CD132 on Jurkat-PD1+ CD122+ cells (UniProt P14784 27-551; P31785 23-369)
T1 sequence (looked up) 1: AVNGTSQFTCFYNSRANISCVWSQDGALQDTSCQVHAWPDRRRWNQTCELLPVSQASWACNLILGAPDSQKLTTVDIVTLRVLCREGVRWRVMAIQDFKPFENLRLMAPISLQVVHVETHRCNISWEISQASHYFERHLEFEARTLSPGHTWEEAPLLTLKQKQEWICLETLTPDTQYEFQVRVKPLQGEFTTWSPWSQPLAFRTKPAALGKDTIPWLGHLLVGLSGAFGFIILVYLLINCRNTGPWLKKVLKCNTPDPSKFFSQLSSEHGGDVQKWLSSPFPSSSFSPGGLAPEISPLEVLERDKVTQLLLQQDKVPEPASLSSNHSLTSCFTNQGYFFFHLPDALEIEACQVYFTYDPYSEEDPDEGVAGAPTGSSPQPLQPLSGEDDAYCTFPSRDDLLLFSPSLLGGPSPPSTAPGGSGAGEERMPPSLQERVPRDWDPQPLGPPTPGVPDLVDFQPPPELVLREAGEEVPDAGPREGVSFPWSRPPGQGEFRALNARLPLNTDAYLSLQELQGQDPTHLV
T1 sequence (looked up) 2: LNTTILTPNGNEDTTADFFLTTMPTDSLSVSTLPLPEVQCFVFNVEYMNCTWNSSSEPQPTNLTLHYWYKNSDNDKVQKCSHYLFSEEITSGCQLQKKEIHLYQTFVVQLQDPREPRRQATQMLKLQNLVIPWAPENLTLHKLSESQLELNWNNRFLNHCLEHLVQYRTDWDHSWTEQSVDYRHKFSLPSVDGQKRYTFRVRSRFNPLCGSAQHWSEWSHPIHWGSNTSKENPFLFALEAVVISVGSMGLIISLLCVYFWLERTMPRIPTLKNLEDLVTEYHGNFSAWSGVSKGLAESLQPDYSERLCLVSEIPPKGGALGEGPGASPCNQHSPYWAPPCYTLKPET
Test: cell-based or functional assay

Binder	EC50 value for pSTAT5 induction
B1	60 pM
B2	60 pM
B3	43.9 nM
B4	0.12 nM
B5	70 pM
B6	5.37 nM
